Measurements taken from PMC4118853, “Phage Orf Family Recombinases: Conservation of Activities and Involvement of the Central Channel in DNA Binding” (PLoS ONE, 2014).
Where a chain is given by its changes, count along the chain named.

Key:
Details in all cases: protein: recombinant; tags: N-terminal MBP; chain copies: 2; label: 5'-32P; single strand
MBP-Orf R103E = molecular target: T1, MBP-Orf R103E (Bacteriophage lambda, UniProt P03765 1-146, R103E); experiment: EMSA; 5 mM EDTA; up to 500 nM; EMSA: 50 mM Tris-HCl pH 8.0, 5 mM EDTA (or 1 mM MgCl2), 1 mM DTT, 5% glycerol, 100 ug/ml BSA, on ice 15 min, 4% PAGE; anisotropy: 100 mM Tris-HCl pH 7.0, 10 nM
T1 sequence: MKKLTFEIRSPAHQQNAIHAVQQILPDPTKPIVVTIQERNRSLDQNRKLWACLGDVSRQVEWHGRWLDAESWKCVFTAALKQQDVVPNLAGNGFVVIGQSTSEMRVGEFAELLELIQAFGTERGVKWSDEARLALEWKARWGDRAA

MBP-Orf = molecular target: T2, MBP-Orf (Bacteriophage lambda, UniProt P03765 1-146); experiment: EMSA; 5 mM EDTA; EMSA: 50 mM Tris-HCl pH 8.0, 5 mM EDTA (or 1 mM MgCl2), 1 mM DTT, 5% glycerol, 100 ug/ml BSA, on ice 15 min, 4% PAGE; anisotropy: 100 mM Tris-HCl pH 7.0, 10 nM
T2 sequence: T1 sequence with E103R

MBP-YbcN = molecular target: T3, MBP-YbcN (Escherichia coli cryptic prophage DLP12 …, UniProt Q47269 1-151); experiment: EMSA; 5 mM EDTA; lower affinity than MBP-Orf; EMSA: 50 mM Tris-HCl pH 8.0, 5 mM EDTA (or 1 mM MgCl2), 1 mM DTT, 5% glycerol, 100 ug/ml BSA, on ice 15 min, 4% PAGE; anisotropy: 100 mM Tris-HCl pH 7.0, 10 nM
T3 sequence: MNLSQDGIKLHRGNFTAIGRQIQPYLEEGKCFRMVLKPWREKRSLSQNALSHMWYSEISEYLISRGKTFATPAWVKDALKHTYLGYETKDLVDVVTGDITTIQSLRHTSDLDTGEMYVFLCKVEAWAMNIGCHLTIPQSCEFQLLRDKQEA

Q: Which results are given for GGCGACGTGATCACCAGATGATTGCTAGGCATGCTTTCCGCAAGAGAAGC (ssDNA) [SS50]?
A: binding result (MBP-Orf R103E): no binding; binding result (MBP-Orf): binds; binding result (MBP-YbcN): binds
